Drawing on the RNAGym collection of RNA variant scans (doi:10.7554/elife.80360), this text covers self-cleavage for 167 variants.

B1: HDV Ribozyme (parent)
chain: GGCCGGCAUGGUCCCAGCCUCCUCGCUGGCGCCGGCUGGGCAACAUUCCGAGGGGACCGUCCCCUCGGUAAUGGCGAAUGGGACCCA

In the series the parent is B1. Kind of series: self-cleavage, relative activity (ratio to wild type); higher = more cleavage; co-transcriptional.
Turning to G10U G50C, the self-cleavage worked out at 0.817.

In the case of U47C C58G, the self-cleavage was 0.807.

With U23A G74A, the self-cleavage was found to be 0.465.

As for G50U C57G, the self-cleavage was found to be 0.986.

With U20G C58A, the self-cleavage came out at 0.266.

Take G50A C85A: the self-cleavage stood at 0.941.

As to C61G U69A, the self-cleavage was found to be 0.789.

As to C13A U72G, the self-cleavage is 0.0639.

With G50A G80C, the self-cleavage was determined as 0.284.

C58U A78C: the self-cleavage was found to be 0.305.

As to A8G A87U, the self-cleavage amounted to 0.991.

As to C61G C85A, the self-cleavage was determined as 0.935.

Take U23C A83G: the self-cleavage was 0.742.

Take C62A U79A: the self-cleavage stood at 0.636.

Consider G50C A51G, for which the self-cleavage turned out to be 1.07.

Turning to U46C A51U, the self-cleavage stood at 0.846.

Regarding U23G G31A, the self-cleavage amounted to 0.175.

On to G31U U69C, for which the self-cleavage is 0.396.

For G35C A43C, the self-cleavage was 0.17.

Consider A8U G73C, for which the self-cleavage turned out to be 0.0831.

For U9A C26G, the self-cleavage came to 0.623.

C49G C86U: the self-cleavage worked out at 0.831.

As for U20A C86G, the self-cleavage is 0.166.

For the variant C30U C36G, the self-cleavage came out at 0.0941.

Regarding G38U C44A, the self-cleavage was determined as 0.16.

Consider C32G G35A, for which the self-cleavage was found to be 0.154.

Turning to G82U C84A, the self-cleavage was determined as 0.261.

For C49G U69G, the self-cleavage came to 0.831.

C26G G53A: the self-cleavage is 1.02.

As to U23A G55A, the self-cleavage was found to be 0.969.

For the variant C49A C61G, the self-cleavage is 0.816.

With C48G G74U, the self-cleavage came out at 0.509.

For C3G C24G, the self-cleavage was 0.102.

C44G C57A: the self-cleavage was 0.944.

Consider A45G C84A, for which the self-cleavage was determined as 0.587.

Regarding G6C G53A, the self-cleavage was found to be 0.233.

As for C13U G55A, the self-cleavage was determined as 0.702.

For G74U G76A, the self-cleavage came to 0.453.

On to C32U A56C, for which the self-cleavage came out at 1.12.

For G10A C32U, the self-cleavage was found to be 0.652.

For the variant G2U C63G, the self-cleavage amounted to 0.0528.

Regarding U27A G39C, the self-cleavage is 0.0504.

Consider C21A G55U, for which the self-cleavage is 0.0554.

Take G34A C64G: the self-cleavage worked out at 0.0963.

Turning to C3G G10A, the self-cleavage came to 0.107.

As to C32U G80A, the self-cleavage is 0.256.

Take C58U C75A: the self-cleavage came to 0.095.

C13U U60G: the self-cleavage stood at 0.831.

Consider G17A G82U, for which the self-cleavage came to 0.346.

As to C33G G38C, the self-cleavage came out at 0.

As to C3A A8G, the self-cleavage came out at 0.578.

For the variant U12C G55A, the self-cleavage was found to be 0.237.

For G34C A77G, the self-cleavage is 0.161.

On to A70G C86A, for which the self-cleavage was determined as 0.743.

As for C49U U65A, the self-cleavage was 0.966.

On to U12C U37G, for which the self-cleavage came out at 0.332.

Turning to G25A A87C, the self-cleavage was 0.183.

Take C18G C62A: the self-cleavage came out at 0.113.

As for G6U U23C, the self-cleavage amounted to 0.312.

C18U C66U: the self-cleavage was 0.801.

G6A U27C: the self-cleavage was determined as 0.268.

As for A8C C84U, the self-cleavage worked out at 0.462.

Take C84U C85G: the self-cleavage came out at 0.923.

On to A8G A70G, for which the self-cleavage came out at 1.09.

On to C4U U60C, for which the self-cleavage stood at 0.872.

For the variant A8G G29A, the self-cleavage stood at 0.

Regarding C61A G73U, the self-cleavage was 0.353.

Turning to U23G C86U, the self-cleavage stood at 0.877.

Regarding G10U C13G, the self-cleavage was 0.

Turning to A71U C84A, the self-cleavage is 0.862.

Consider A71U C84U, for which the self-cleavage turned out to be 0.475.

Consider G5A G74U, for which the self-cleavage turned out to be 0.0326.

On to G68C C84A, for which the self-cleavage came to 1.06.

For the variant C14G G67C, the self-cleavage came to 0.554.

Turning to C13A G25C, the self-cleavage was 0.0773.

Take C32U A45C: the self-cleavage amounted to 0.291.

With G17U C19G, the self-cleavage was determined as 0.

As to G17U C19A, the self-cleavage was found to be 0.166.

G54C A56U: the self-cleavage was determined as 1.06.

With A43G G82C, the self-cleavage was found to be 0.131.

G10A U46C: the self-cleavage worked out at 0.397.

In the case of C3A U69A, the self-cleavage came out at 0.406.

For the variant U46A C64U, the self-cleavage was 0.649.

As for C21U G39U, the self-cleavage was 0.604.

For the variant C18U G50A, the self-cleavage was found to be 0.852.

Consider G11A U20A, for which the self-cleavage worked out at 0.0623.

On to G39U U46C, for which the self-cleavage is 0.486.

As for C26A A43U, the self-cleavage was found to be 0.527.

Take G52U C85G: the self-cleavage amounted to 0.791.

In the case of U23C C64G, the self-cleavage amounted to 0.76.

On to U27C C86A, for which the self-cleavage was determined as 0.875.

For U65C G82A, the self-cleavage was found to be 0.554.

A77C G81A: the self-cleavage amounted to 0.173.

Consider C19U G68C, for which the self-cleavage was 0.148.

With U20C C61A, the self-cleavage was 0.166.

With G1C C64G, the self-cleavage came to 0.244.

For the variant C32U C63A, the self-cleavage stood at 0.701.

As for U23A A78U, the self-cleavage came to 0.256.

With U12A G31U, the self-cleavage amounted to 0.0811.

For the variant C19U G40A, the self-cleavage turned out to be 0.0944.

C13U G73U: the self-cleavage came to 0.0875.

Turning to G1U C36U, the self-cleavage amounted to 0.318.

For C4G U27A, the self-cleavage came out at 0.222.

As to C63G C84A, the self-cleavage was found to be 1.06.

C13G U20A: the self-cleavage worked out at 0.

With C63A G81C, the self-cleavage turned out to be 0.188.

For the variant G17U G82A, the self-cleavage amounted to 0.543.

For the variant C36A C64A, the self-cleavage was determined as 0.0405.

Regarding G34U G68C, the self-cleavage amounted to 0.322.

A70G A78C: the self-cleavage is 0.151.

Take C26U C86G: the self-cleavage is 1.14.

As to G6C U23A, the self-cleavage was found to be 0.0615.

On to G17A A83G, for which the self-cleavage was 0.7.

Take U23A G82U: the self-cleavage was 0.425.

Regarding G31A C58U, the self-cleavage worked out at 0.399.

For C7A C21G, the self-cleavage turned out to be 0.

Turning to C19U G50A, the self-cleavage amounted to 0.245.

In the case of G2A A87C, the self-cleavage stood at 0.273.

Consider C33U G67U, for which the self-cleavage worked out at 0.816.

On to A16G C22U, for which the self-cleavage was determined as 0.853.

On to G2U U65A, for which the self-cleavage worked out at 0.02.

For C3G C33U, the self-cleavage was found to be 0.194.

Take U23A A43C: the self-cleavage stood at 0.312.

Take C19U A56G: the self-cleavage stood at 0.119.

Regarding G52U U60C, the self-cleavage turned out to be 0.961.

As for A8C A56G, the self-cleavage came to 0.939.

With U12A G17U, the self-cleavage amounted to 0.108.

As for C44G C61G, the self-cleavage was found to be 0.441.

G17C G31A: the self-cleavage turned out to be 0.0652.

Take C63U U79A: the self-cleavage was 0.997.

With A56C U72C, the self-cleavage worked out at 0.539.

C18G C24G: the self-cleavage was 0.0504.

For the variant C22U G31C, the self-cleavage turned out to be 0.

With G34C G73A, the self-cleavage was 0.106.

On to G31U C36G, for which the self-cleavage was determined as 0.0906.

As to U69C U72G, the self-cleavage amounted to 0.529.

G10A G31C: the self-cleavage came to 0.198.

For A42G C63U, the self-cleavage came to 0.633.

In the case of A43C G67A, the self-cleavage was 0.322.

Regarding C33A C63U, the self-cleavage is 0.503.

Take U27C G82A: the self-cleavage came to 0.396.

For C30G C49U, the self-cleavage amounted to 0.0511.

As to C4G C33G, the self-cleavage stood at 0.0583.

As for G17U A78C, the self-cleavage amounted to 0.131.

A42G A51U: the self-cleavage was 0.464.

As for G67C G80U, the self-cleavage was 0.223.

As to A16G A71G, the self-cleavage is 0.748.

For the variant G68C C75A, the self-cleavage came out at 0.0346.

For C4G U60C, the self-cleavage was 0.0875.

Take G28U G59A: the self-cleavage stood at 0.0936.

With C24U U72C, the self-cleavage is 0.104.

As to G38A G76U, the self-cleavage stood at 0.202.

Take U37A G52U: the self-cleavage is 0.214.

On to A8G C30A, for which the self-cleavage came out at 0.237.

As to C41A C85G, the self-cleavage was 0.86.

Regarding G39C U79G, the self-cleavage is 0.196.

G54A C75A: the self-cleavage was found to be 0.211.

On to C61U C62G, for which the self-cleavage was determined as 0.694.

Consider G54A A77U, for which the self-cleavage came out at 0.634.

As for C21A U65G, the self-cleavage amounted to 0.0665.

Turning to C13A C86A, the self-cleavage is 0.492.

For the variant A8C C30G, the self-cleavage came out at 0.

As to G29U C36U, the self-cleavage turned out to be 0.187.

In the case of G28U U47G, the self-cleavage was determined as 0.095.

Regarding G52U C66G, the self-cleavage is 0.472.

Turning to A8G G50U, the self-cleavage was 0.984.

U12C U60A: the self-cleavage worked out at 0.145.
